The chains are these.
B1: Refmab #3 (antibody, V domains shown)
VH: QVQLVQSGAEVKKPGSSVKVSCKASGYTFTDYNMHWVRQAPGQGLEWIGYIYPYNGGTGYNQKFKSKATITADESTNTAYMELSSLRSEDTAVYYCARGRPAMDYWGQGTLVTVSS
VL: DIQMTQSPSSLSASVGDRVTITCRASESVDNYGISFMNWFQQKPGKAPKLLIYAASNQGSGVPSRFSGSGSGTDFTLTISSLQPDDFATYYCQQSKEVPWTFGQGTKVEIK
notes: Full-length format is human IgG1 Fc silent (PG-LALA); The alanine scan used IgG or Fab
B2: Refmab #1 (antibody, V domains shown)
VH: EVQLVQSGAEVKKPGSSVKVSCKASGYTITDSNIHWVRQAPGQSLEWIGYIYPYNGGTDYNQKFKNRATLTVDNPTNTAYMELSSLRSEDTAFYYCVNGNPWLAYWGQGTLVTVSS
VL: DIQLTQSPSTLSASVGDRVTITCRASESLDNYGIRFLTWFQQKPGKAPKLLMYAASNQGSGVPSRFSGSGSGTEFTLTISSLQPDDFATYYCQQTKEVPWSFGQGTKVEVK
notes: Full-length format is human IgG1 (Absolute Antibody Ab00283-10.0); The alanine scan used IgG or Fab; also called hP67.6
B3: Refmab #4 (antibody, V domains shown)
VH: QVQLVQSGAEVKKPGESVKVSCKASGYTFTNYGMNWVKQAPGQGLEWMGWINTYTGEPTYADKFQGRVTMTTDTSTSTAYMEIRNLGGDDTAVYYCARWSWSDGYYVYFDYWGQGTSVTVSS
VL: DIVMTQSPDSLTVSLGERTTINCKSSQSVLDSSTNKNSLAWYQQKPGQPPKLLLSWASTRESGIPDRFSGSGSGTDFTLTIDSPQPEDSATYYCQQSAHFPITFGQGTRLEIK
notes: as for B1
B4: Refmab #2 (antibody, V domains shown)
VH: QVQLVQSGAEVKKPGSSVKVSCKASGGTFSDYAISWVRQAPGQGLEWMGRIIPILGVADYAQKFQGRVTITADKSTRTAYMELSSLRSEDTAVYYCARNWADAFDIWGQGTMVTVSS
VL: DIQLTQSPSSLSASVGDRVTITCRASQGISSVLAWYQQKPGKAPKLLIYDASSLESGVPSRFSGSGSGTDFTLTISSLQPEDFATYYCQQFDSSITFGQGTKLEIK
notes: as for B1

human CD33 F61A, sequence (P20138 18-364 F61A limits assumed): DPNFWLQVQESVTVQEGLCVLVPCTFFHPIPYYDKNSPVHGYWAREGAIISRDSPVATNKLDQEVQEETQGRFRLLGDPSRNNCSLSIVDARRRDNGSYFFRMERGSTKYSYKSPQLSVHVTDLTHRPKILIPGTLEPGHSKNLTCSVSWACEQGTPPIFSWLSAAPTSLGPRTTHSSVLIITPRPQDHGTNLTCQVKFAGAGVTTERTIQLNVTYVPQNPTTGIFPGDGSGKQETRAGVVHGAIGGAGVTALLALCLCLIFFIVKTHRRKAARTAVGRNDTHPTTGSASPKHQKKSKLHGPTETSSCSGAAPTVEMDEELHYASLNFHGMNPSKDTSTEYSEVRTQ
human CD33 A74S, sequence (P20138 18-364 A74S limits assumed): as the sequence (P20138 18-364 F61A limits assumed) above, with A44F, A57S counted along it
human CD33 L35A, sequence (P20138 18-364 L35A limits assumed): as the sequence (P20138 18-364 F61A limits assumed) above, with L18A, A44F counted along it
human CD33 T42A, sequence (P20138 18-364 T42A limits assumed): as the sequence (P20138 18-364 F61A limits assumed) above, with T25A, A44F counted along it

In the first assay the target is human CD33 N76A (human, UniProt P20138 18-364). Nature of the assay: alanine scan, flow cytometry.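 Note: HEK293-T cells transiently expressing single-residue alanine mutants of CD33 (alanine swapped to serine), antibody binding read by fluorescence in duplicate, background-subtracted, expressed relative to wild-type CD33.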 For orientation: In flow cytometry, cells or beads pass a laser one at a time.
human CD33 N76A, sequence (P20138 18-364 N76A limits assumed): as the sequence (P20138 18-364 F61A limits assumed) above, with A44F, N59A counted along it
Experimental: (§1) An alanine scan on human CD33 was performed to the determine the residues on CD33 that are involved in binding to the antibodies investigated. […] Briefly, a mutation library of CD33 was created by high-throughput, site-directed mutagenesis. Each residue was individually mutated to alanine, with alanine codons mutated to serine. The mutant library was arrayed in 384-well microplates and transiently transfected into HEK293-T. Following transfection, cells were incubated with the indicated antibodies (IgG or Fab) at concentrations pre-determined using an independent immunofluorescence titration curve on wild type CD33. […] Binding of each antibody to each mutant clone was determined in duplicates. For each point, background fluorescence was subtracted from the raw data, which were then normalized to antibody reactivity with wild type CD33.
(§2) Critical residues for antibody binding (outlined in dark grey) were residues whose mutations led to a binding of the test Abs of less than 20%. Additional secondary residues (outlined in light grey) were identified that led to a binding of the test Abs of between 20 and 40% as compared to the wild type CD33.
Regarding B1, the “Mean % WT Binding” value amounted to 148 % WT.
In the case of B2, the “Mean % WT Binding” value worked out at 61.8 % WT.
Turning to B3, the “Mean % WT Binding” value is 34.7 % WT.
Turning to B4, the “Mean % WT Binding” value is 106 % WT.

The next assay addresses human CD33 L35A (human, UniProt P20138 18-364). The experiment in a line: alanine scan, flow cytometry.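 Note: HEK293-T cells transiently expressing single-residue alanine mutants of CD33 (alanine swapped to serine), antibody binding read by fluorescence in duplicate, background-subtracted, expressed relative to wild-type CD33.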
Experimental: as §1, §2
As to B1, the “Mean % WT Binding” value is 102 % WT.
Same read-out and setting: with B2 the figure was 89.1 % WT.
As to B3, the “Mean % WT Binding” value was 94.5 % WT.
For B4, the “Mean % WT Binding” value turned out to be 119 % WT.

The target of a further assay is human CD33 F90A (human, UniProt P20138 18-364). The experiment in a line: alanine scan, flow cytometry.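 Note: HEK293-T cells transiently expressing single-residue alanine mutants of CD33 (alanine swapped to serine), antibody binding read by fluorescence in duplicate, background-subtracted, expressed relative to wild-type CD33.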
human CD33 F90A, sequence (P20138 18-364 F90A limits assumed): as the sequence (P20138 18-364 F61A limits assumed) above, with A44F, F73A counted along it
Experimental: as §1, §2
Regarding B1, the “Mean % WT Binding” value worked out at 138 % WT.
Take B2: the “Mean % WT Binding” value came to 73.9 % WT.
Same read-out and setting: in the case of B3 it was 82.3 % WT.
B4: the “Mean % WT Binding” value came to 104 % WT.

The target of a further assay is human CD33 Q24A (human, UniProt P20138 18-364). The experiment in a line: alanine scan, flow cytometry.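 Note: HEK293-T cells transiently expressing single-residue alanine mutants of CD33 (alanine swapped to serine), antibody binding read by fluorescence in duplicate, background-subtracted, expressed relative to wild-type CD33.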
human CD33 Q24A, sequence (P20138 18-364 Q24A limits assumed): as the sequence (P20138 18-364 F61A limits assumed) above, with Q7A, A44F counted along it
Experimental: as §1, §2
For B1, the “Mean % WT Binding” value came to 101 % WT.
The same measure, in the same setting: in the case of B2 it was 74.1 % WT.
As for B3, the “Mean % WT Binding” value is 68.3 % WT.
With B4, the “Mean % WT Binding” value was determined as 103 % WT.

For a further assay, the target named is human CD33 V29A (human, UniProt P20138 18-364). Nature of the assay: alanine scan, flow cytometry.
human CD33 V29A, sequence (P20138 18-364 V29A limits assumed): as the sequence (P20138 18-364 F61A limits assumed) above, with V12A, A44F counted along it
Experimental: as §1, §2
Take B1: the “Mean % WT Binding” value was determined as 115 % WT.
The same measure, in the same setting: in the case of B2 it was 102 % WT; in that of B3, 84.4 % WT.
In the case of B4, the “Mean % WT Binding” value worked out at 100 % WT.

For a further assay, the target named is human CD33 V39A (human, UniProt P20138 18-364). Nature of the assay: alanine scan, flow cytometry.
human CD33 V39A, sequence (P20138 18-364 V39A limits assumed): as the sequence (P20138 18-364 F61A limits assumed) above, with V22A, A44F counted along it
Experimental: as §1, §2
For B1, the “Mean % WT Binding” value is 122 % WT.
On to B2, for which the “Mean % WT Binding” value worked out at 80 % WT.
As for B3, the “Mean % WT Binding” value stood at 58.4 % WT.
Same read-out and setting: with B4 the figure was 111 % WT.

The next assay addresses human CD33 F61A (human, UniProt P20138 18-364). Nature of the assay: alanine scan, flow cytometry.
Experimental: as §1, §2
Turning to B1, the “Mean % WT Binding” value stood at 304 % WT.
The same measure, in the same setting: with B2 the figure was 95 % WT; with B3, 131 % WT; with B4, 135 % WT.

A further assay has as its target human CD33 T42A (human, UniProt P20138 18-364). The experiment in a line: alanine scan, flow cytometry.
Experimental: as §1, §2
Take B1: the “Mean % WT Binding” value was 198 % WT.
For the molecule B2, the “Mean % WT Binding” value was 105 % WT.
Turning to B3, the “Mean % WT Binding” value was found to be 67.4 % WT.
As for B4, the “Mean % WT Binding” value is 112 % WT.

The next assay deals with human CD33 N53A (human, UniProt P20138 18-364). Nature of the assay: alanine scan, flow cytometry.
human CD33 N53A, sequence (P20138 18-364 N53A limits assumed): as the sequence (P20138 18-364 F61A limits assumed) above, with N36A, A44F counted along it
Experimental: as §1, §2
Consider B1, for which the “Mean % WT Binding” value was 116 % WT.
Take B2: the “Mean % WT Binding” value is 94.7 % WT.
With B3, the “Mean % WT Binding” value is 69 % WT.
As for B4, the “Mean % WT Binding” value came to 96 % WT.

The next assay deals with human CD33 D79A (human, UniProt P20138 18-364). The experiment in a line: alanine scan, flow cytometry.
human CD33 D79A, sequence (P20138 18-364 D79A limits assumed): as the sequence (P20138 18-364 F61A limits assumed) above, with A44F, D62A counted along it
Experimental: as §1, §2
For B1, the “Mean % WT Binding” value amounted to 105 % WT.
Take B2: the “Mean % WT Binding” value came to 88.1 % WT.
As to B3, the “Mean % WT Binding” value came to 74.5 % WT.
For B4, the “Mean % WT Binding” value was 102 % WT.

The next assay deals with human CD33 V37A (human, UniProt P20138 18-364). The experiment in a line: alanine scan, flow cytometry.
human CD33 V37A, sequence (P20138 18-364 V37A limits assumed): as the sequence (P20138 18-364 F61A limits assumed) above, with V20A, A44F counted along it
Experimental: as §1, §2
For the molecule B1, the “Mean % WT Binding” value is 150 % WT.
For the molecule B2, the “Mean % WT Binding” value was 78.7 % WT.
For B3, the “Mean % WT Binding” value was determined as 78.7 % WT.
With B4, the “Mean % WT Binding” value amounted to 118 % WT.

In another assay the target is human CD33 Q87A (human, UniProt P20138 18-364). The experiment in a line: alanine scan, flow cytometry.
human CD33 Q87A, sequence (P20138 18-364 Q87A limits assumed): as the sequence (P20138 18-364 F61A limits assumed) above, with A44F, Q70A counted along it
Experimental: as §1, §2
In the case of B1, the “Mean % WT Binding” value is 161 % WT.
Consider B2, for which the “Mean % WT Binding” value came to 91 % WT.
B3: the “Mean % WT Binding” value was 94.2 % WT.
In the case of B4, the “Mean % WT Binding” value stood at 118 % WT.

Another assay deals with human CD33 N20A (human, UniProt P20138 18-364). Nature of the assay: alanine scan, flow cytometry.
human CD33 N20A, sequence (P20138 18-364 N20A limits assumed): as the sequence (P20138 18-364 F61A limits assumed) above, with N3A, A44F counted along it
Experimental: as §1, §2
Consider B1, for which the “Mean % WT Binding” value was 34.9 % WT.
Same read-out and setting: with B2 the figure was 1.2 % WT.
Take B3: the “Mean % WT Binding” value turned out to be 158 % WT.
For the molecule B4, the “Mean % WT Binding” value was determined as 121 % WT.

The target of a further assay is human CD33 H45A (human, UniProt P20138 18-364). Nature of the assay: alanine scan, flow cytometry.
human CD33 H45A, sequence (P20138 18-364 H45A limits assumed): as the sequence (P20138 18-364 F61A limits assumed) above, with H28A, A44F counted along it
Experimental: as §1, §2
On to B1, for which the “Mean % WT Binding” value came to 55.1 % WT.
For B2, the “Mean % WT Binding” value was 38.7 % WT.
Take B3: the “Mean % WT Binding” value stood at 134 % WT.
Consider B4, for which the “Mean % WT Binding” value was determined as 73.6 % WT.

Another assay deals with human CD33 S68A (human, UniProt P20138 18-364). Nature of the assay: alanine scan, flow cytometry.
human CD33 S68A, sequence (P20138 18-364 S68A limits assumed): as the sequence (P20138 18-364 F61A limits assumed) above, with A44F, S51A counted along it
Experimental: as §1, §2
Take B1: the “Mean % WT Binding” value turned out to be 115 % WT.
The same measure, in the same setting: with B2 the figure was 91.3 % WT; with B3, 90.4 % WT; with B4, 112 % WT.

A further assay addresses human CD33 A74S (human, UniProt P20138 18-364). The experiment in a line: alanine scan, flow cytometry.
Experimental: as §1, §2
In the case of B1, the “Mean % WT Binding” value came to 115 % WT.
On the same count and under the same terms, with B2 the figure was 83.7 % WT; with B3, 72.5 % WT; with B4, 91.7 % WT.

In a further assay the target is human CD33 Q83A (human, UniProt P20138 18-364). The experiment in a line: alanine scan, flow cytometry.
human CD33 Q83A, sequence (P20138 18-364 Q83A limits assumed): as the sequence (P20138 18-364 F61A limits assumed) above, with A44F, Q66A counted along it
Experimental: as §1, §2
For the molecule B1, the “Mean % WT Binding” value worked out at 103 % WT.
Same read-out and setting: with B2 the figure was 87.1 % WT; with B3, 104 % WT.
On to B4, for which the “Mean % WT Binding” value is 107 % WT.

For the next assay, the target named is human CD33 L78A (human, UniProt P20138 18-364). Nature of the assay: alanine scan, flow cytometry.
human CD33 L78A, sequence (P20138 18-364 L78A limits assumed): as the sequence (P20138 18-364 F61A limits assumed) above, with A44F, L61A counted along it
Experimental: as §1, §2
As to B1, the “Mean % WT Binding” value worked out at 113 % WT.
With B2, the “Mean % WT Binding” value was determined as 87.4 % WT.
On the same count and under the same terms, in the case of B3 it was 111 % WT; in that of B4, 108 % WT.

These data come from patent US20260242735A1 (UNIVERSIT T BASEL, published 2026).
